Data from patent US20260199429A1.

What was measured:
[1] = target: Sturgeon PYY(1-36) (sturgeon)
[2] = target: Sea Lamprey PYY(1-36) (sea lamprey)

purified DPP-4 (enzyme)
DPP-4 half-life (Trout PYY (trout)): > 8 h
DPP-4 half-life (Human PYY(1-36) (human)): < 2 h
DPP-4 half-life (Bowfin PYY (bowfin)): > 8 h
DPP-4 half-life [1]: > 8 h
DPP-4 half-life [2]: > 8 h
